Data published in patent US20180258174A1 (INSITUT NATIONAL DE LA SANTE ET DE LA RECHERCHE MEDICALE …, published 2018).

Target: RLIQ108D/CD122 complex (RLIQ108D bound to immobilized CD122) (human, UniProt P14784 27-240, limits assumed)
Test: SPR, sequential binding on immobilized CD122
Description: The SPR experiments were performed with a BIAcore 3000 biosensor (BIAcore, Uppsala, Sweden). Recombinant proteins (hCD122, hCD132, Fc-IL-15Rα) were covalently linked to CM5 sensor chips, and the binding of increasing concentrations of ligands (IL-15, IL-15Q108D, RLI, RLIQ108D, RLIN65K) was monitored. Analysis of sensorgrams was performed using BIAlogue kinetics evaluation software.
In order to inhibit IL-2 and IL-15 dependent effector functions, we developed an original approach targeting the CD122/CD132 dimer, by combining an increased affinity for CD122 and an impaired recruitment of CD132. […] We have thus generated RLIQ108D, a fusion molecule between IL-15Q108D mutein covalently linked to the soluble IL-15Rα sushi domain. As a control, RLIN65K was produced in which CD122 recruitment was abrogated by introducing the N65K mutation in the IL-15 moiety. […] By contrast, RLIN65K was unable to bind CD122 (FIG. 11C). Furthermore, soluble CD132 binding to RLI/CD122 complex was completely abrogated when introducing in RLI the Q108D substitution (RLIQ108D) (FIG. 11E). […] As a control, the binding of the non-blocking CF-1 anti-CD122 mAb was unaffected by either RLIQ108D or RLIN65K (FIG. 12A).

Chain of RLIQ108D/CD122 complex (RLIQ108D bound to immobilized CD122) (chain, as listed by the source limits assumed, chain 1 of 2): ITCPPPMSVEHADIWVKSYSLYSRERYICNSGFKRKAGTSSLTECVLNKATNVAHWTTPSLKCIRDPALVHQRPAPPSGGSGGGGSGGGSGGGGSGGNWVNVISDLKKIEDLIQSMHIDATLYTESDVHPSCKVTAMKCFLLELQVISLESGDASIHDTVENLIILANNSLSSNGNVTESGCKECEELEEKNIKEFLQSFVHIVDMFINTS
Chain of RLIQ108D/CD122 complex (RLIQ108D bound to immobilized CD122) (P14784 27-240 limits assumed, chain 2 of 2): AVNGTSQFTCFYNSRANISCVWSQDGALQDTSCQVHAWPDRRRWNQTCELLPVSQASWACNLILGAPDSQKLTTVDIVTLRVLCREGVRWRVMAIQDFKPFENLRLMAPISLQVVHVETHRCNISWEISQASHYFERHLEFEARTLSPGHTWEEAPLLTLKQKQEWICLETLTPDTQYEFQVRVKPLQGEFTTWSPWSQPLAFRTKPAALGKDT

B1: hCD132 (recombinant, soluble CD132 chain) (receptor, human, UniProt P31785 23-262, looked up)
chain: LNTTILTPNGNEDTTADFFLTTMPTDSLSVSTLPLPEVQCFVFNVEYMNCTWNSSSEPQPTNLTLHYWYKNSDNDKVQKCSHYLFSEEITSGCQLQKKEIHLYQTFVVQLQDPREPRRQATQMLKLQNLVIPWAPENLTLHKLSESQLELNWNNRFLNHCLEHLVQYRTDWDHSWTEQSVDYRHKFSLPSVDGQKRYTFRVRSRFNPLCGSAQHWSEWSHPIHWGSNTSKENPFLFALEA
  binding result: no binding
